In paper PMC11609053:

What was measured:
[1] = molecular target: T1, SCAB_Lrp2 (Streptomyces scabies 87.22) (UniProt C9Z7M0); test: EMSA; settings: 20 uL: 50 ng biotin-labelled probe, 0-400 nM protein, 2 uL binding buffer (Liu et al. 2023; composition, pH and temperature not given), chemiluminescent …
T1 sequence: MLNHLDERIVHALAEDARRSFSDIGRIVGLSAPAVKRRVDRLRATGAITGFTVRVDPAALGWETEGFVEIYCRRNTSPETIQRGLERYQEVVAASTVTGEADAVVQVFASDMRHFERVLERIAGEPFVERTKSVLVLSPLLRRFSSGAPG

[2] = molecular target: T2, SCAB_Lrp (Streptomyces scabies 87.22?) (UniProt C9ZB67); test: EMSA; settings: 20 uL: 50 ng biotin-labelled probe, 0-400 nM protein, 2 uL binding buffer (Liu et al. 2023; composition, pH and temperature not given), chemiluminescent …
T2 sequence: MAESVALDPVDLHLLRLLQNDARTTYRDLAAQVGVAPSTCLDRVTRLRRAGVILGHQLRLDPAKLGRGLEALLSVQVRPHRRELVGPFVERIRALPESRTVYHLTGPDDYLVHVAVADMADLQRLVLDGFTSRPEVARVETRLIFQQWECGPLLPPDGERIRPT

Row | Sequence | binding [1] | binding [2]
1 | AAGGCAGTACCTTGCGCTCGGCGCGTCGGCCGGAAATCGAGTGAAGCAAGATGCTTCCCCCTTCTCGGCTCCGAGCGCGACAAACAGTTCAGAACAGGCCACGGCGAGATCCTCCGCAAGGAACGAACCCAGTCGTTCACCCGCTTAGTTTGATTGAAATTTCAACTACCAGGTCAATCG (double strand) [PtxtR] | binds | –
2 | GTCGTCTTCGGCGTCTGGATGGCCGCCGGGCTCGTGTTCTACTTCAGTTACGGCCACCGGCGCTCGCGTCTGGCTGCGGCCCCGGCCCCCGCCGACCCCACGTCCCCGCCGGCTCCCCCGTCCACGTCCCCGTCGACTCCAGAGAAGTGATCCACCCGCAGTGCTGAACCATCTCGACGA (double strand) [P75421] | binds | binds
